Data on 139 substances can be found in the supplement of paper PMC12042874.

± gives the uncertainty stated by the source.

The series in a line: amyloid nucleation score (Sup35N fusion, yeast selection) (log enrichment); library NNK1; higher = more nucleation; inactive = no reads after selection. In outline: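 The nucleation score is the DiMSum log enrichment of output over input reads, centred on the mode score of non-aggregating sequences. Only sequences with 100 or more input reads were scored, using Illumina sequencing of input and output plasmid inserts. Psi-negative yeast expressing Sup35N fused to peptides of 20 random codons were induced 24 hours with 100 μM copper sulfate and grown 7 days at 30°C on medium lacking adenine and uracil.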
TVLSSFLLKLRLTIVSCFLR: the amyloid nucleation score was -0.082 ± 0.65.

The substance HPQYMLPT showed an amyloid nucleation score of 0.569 ± 0.32.

For the substance EGFITSSMALGLHFVLLGWV, the amyloid nucleation score was -1.37 ± 1.3.

GGQRWELLFLTRGPGRRWQG yielded an amyloid nucleation score of 0.2 ± 1.2.

The substance CLHFFTQTTVWCKHVSSQKV gave an amyloid nucleation score of 0.21 ± 0.48.

In turn, NISPISYKIVVTIYSYFWLS registered an amyloid nucleation score of 0.452 ± 0.4.

For the substance RFRVCCNRSKRGGYGPNVER, the amyloid nucleation score was -0.363 ± 0.67.

For the substance SNWTPCQSESP, the amyloid nucleation score was -0.311 ± 0.55.

Turning to LCLFGSWLKKLKYNRFLFVG, the amyloid nucleation score is -1.18 ± 1.7.

For the substance VVVEKLAQLNHVKAEPMVSG, the amyloid nucleation score was determined as 0.335 ± 0.57.

In turn, FVKRF showed an amyloid nucleation score of 0.073 ± 0.4.

Substance YSLNTSTAWESAAAVTW yielded an amyloid nucleation score of 0.196 ± 0.4.

Regarding RYIPARGVNGGYSVVVRHLG, the amyloid nucleation score was -0.436 ± 0.38.

As to TTFSEVERLWGWSVFCNLST, the amyloid nucleation score amounted to 0.723 ± 0.66.

For EMYKSVP, the amyloid nucleation score came to 0.109 ± 0.48.

In the case of KFIIAGNLNQKSTSWV, the amyloid nucleation score was found to be 2.23 ± 0.086.

Substance SKICLMSIYHLQLDPFIGMP had an amyloid nucleation score of 3.03 ± 0.17.

For RFLSSALRARRYSRPVPLVM, the amyloid nucleation score is 1.13 ± 0.76.

With HVGQAVSSCDSNLE, the amyloid nucleation score was -0.365 ± 0.59.

Take NLRYSFFFNSDNSRVWECS: the amyloid nucleation score worked out at 0.682 ± 0.35.

For VDVRNWCIWDWKGLSAGVGG, the amyloid nucleation score is -0.643 ± 0.41.

With RNGCKFTKLFETVRFKEEGF, the amyloid nucleation score was -1.03 ± 0.48.

LKHDRSNR: the amyloid nucleation score came to 0.345 ± 1.2.

On to VKTPSVRIKWDVISLSLPCA, for which the amyloid nucleation score came to 0.156 ± 0.53.

As to PGKICSNDQVNVSAY, the amyloid nucleation score was -0.179 ± 0.49.

As for LEMDRICMMLSDSRFKLTLV, the amyloid nucleation score was -0.025 ± 0.21.

For the substance GYRHRYQQTKGIVTHSMYFD, the amyloid nucleation score came to 1.27 ± 0.9.

Take FASRVCMRSNQKIPAWQLWS: the amyloid nucleation score is -0.359 ± 0.29.

On to FEHVSMWIVCFVKNLKYRIR, for which the amyloid nucleation score is -0.86 ± 0.86.

With RLTVSGVTLGSVTHAFCGAP, the amyloid nucleation score was 0.267 ± 0.67.

On to RYKWMYFCFHLIMVGNRMSA, for which the amyloid nucleation score entry is “inactive”.

Turning to HNIKVAGQMYANKSRICTSM, the amyloid nucleation score was 0.412 ± 0.47.

Regarding SRTYPVDMFPMSLKLSINVL, the amyloid nucleation score was -0.125 ± 0.79.

With TLPYSKKSLTQFRRGAKICY, the amyloid nucleation score stood at 0.588 ± 0.56.

The substance YYFIFII came in with an amyloid nucleation score of 4.79 ± 0.074.

Take LGHGHIDGQYKGYRVKWTYD: the amyloid nucleation score is -0.644 ± 0.35.

Consider TSSVYLWVSQCYGMNSLLNL, for which the amyloid nucleation score is -0.118 ± 0.75.

Regarding DGCDGCLTYAKCGYLGFY, the amyloid nucleation score is 0.424 ± 0.67.

As for LKVRLNESIICYAMRVKHIC, the amyloid nucleation score was found to be 0.345 ± 0.36.

For the substance FYGQRPKMLCPTRAEDLTKA, the amyloid nucleation score was -0.269 ± 0.88.

Take DKELSFAKGACSKFSDSFRA: the amyloid nucleation score was -1.45 ± 1.1.

As to PMRACHCCFGCTKSLAHDSN, the amyloid nucleation score amounted to 0.912 ± 0.53.

ITGFKFS had an amyloid nucleation score of 0.698 ± 0.3.

For VLNLIRRGIWGYHHEMGTG, the amyloid nucleation score is -0.947 ± 0.81.

HGLVNG yielded an amyloid nucleation score of 0.437 ± 0.52.

Turning to FNSRTAGCRLSTQMFSRKQT, the amyloid nucleation score was determined as 0.402 ± 0.92.

Regarding SLNAMFIFLLAYKRGVYEYM, the amyloid nucleation score turned out to be 1.25 ± 0.24.

On to LSTMRLGHYCLAYCRLGCLY, for which the amyloid nucleation score came out at 0.827 ± 0.41.

On to NDNGVMLVLCEGMY, for which the amyloid nucleation score was 0.014 ± 0.32.

As for KGQSRHVSECVGWVSNVASL, the amyloid nucleation score is 0.461 ± 0.73.

SIRLREL came in with an amyloid nucleation score of 1.61 ± 0.76.

As to LFPIDSVNGTDWMTRMRDKI, the amyloid nucleation score entry was “inactive”.

In turn, IGKSCFIFVTG yielded an amyloid nucleation score of 0.56 ± 0.43.

For the substance VISGVCFSDIFLDVPTLWLW, the amyloid nucleation score worked out at 0.393 ± 0.3.

Regarding AKSELHYSRFYFTLGVMKSL, the amyloid nucleation score is -0.138 ± 0.48.

For YLHSSGGYNFSVRVSKYNCE, the amyloid nucleation score is -0.689 ± 0.61.

In turn, VPENLKRMRVRAVSLGMSGE registered an amyloid nucleation score of 1.44 ± 0.5.

For the substance QGRTRSYY, the amyloid nucleation score is -0.301 ± 0.82.

Consider KDIYKRFFWYYSKKVCGYGA, for which the amyloid nucleation score was -0.172 ± 0.25.

Consider GQRSLT, for which the amyloid nucleation score is -0.088 ± 0.24.

On to YSLMLFESVSSGFKCSLRFA, for which the amyloid nucleation score is -0.65 ± 0.42.

In the case of TCSGA, the amyloid nucleation score was -0.073 ± 0.39.

In the case of YSFRGEHSTLCLDNVVKSFQ, the amyloid nucleation score result was “inactive”.

In turn, GFECSCKYHDFTGSALCNTL yielded an amyloid nucleation score of 0.613 ± 0.36.

For EVFRRSLGTTDAVGPKHDAQ, the amyloid nucleation score amounted to 2.39 ± 0.17.

Regarding AHTSYYTMSTSRTADGVKIS, the amyloid nucleation score turned out to be 0.028 ± 0.31.

EAFRLCGLVRACVAFCG registered an amyloid nucleation score of 0.116 ± 0.3.

CGPELNESQG: the amyloid nucleation score was -0.485 ± 0.67.

DYTILYVVWILCGIKMSVVI came in with an amyloid nucleation score of 0.699 ± 0.66.

On to STPAVDALRYCMTSIAFRKI, for which the amyloid nucleation score was -1.11 ± 0.58.

IVFLKLWEQVGWTVIDNLGV: the amyloid nucleation score was -0.552 ± 1.4.

In the case of ILLMSSGEDYSHTGAP, the amyloid nucleation score is -0.06 ± 0.76.

Regarding FTCFAK, the amyloid nucleation score was 1.14 ± 0.52.

For the substance NPCHKMFSRNPHLYMAAVKS, the amyloid nucleation score amounted to 0.335 ± 0.96.

CEVSIVSLARYVGREDLFDR gave an amyloid nucleation score of 0.213 ± 0.65.

In the case of NRLGLGPVSSICGR, the amyloid nucleation score is -0.339 ± 0.81.

With MFLYLLVVTP, the amyloid nucleation score result was “inactive”.

With QCRQAQLVLFGVSVWTGYVK, the amyloid nucleation score is -0.083 ± 0.38.

With EILETGRCLSFLYRIVDGCI, the amyloid nucleation score result was “inactive”.

IGACVMQVNLCQSSGVSSYL displayed an amyloid nucleation score of 5.72 ± 0.062.

In the case of MMDVV, the amyloid nucleation score is -0.756 ± 0.58.

For FTRGDICLYLFCELFRPVNC, the amyloid nucleation score is 2.29 ± 0.22.

The substance PCAETLVRHIHAYLKWI yielded an amyloid nucleation score of 0.065 ± 1.2.

On to VRRVPKLVHAADLELWAGSE, for which the amyloid nucleation score is -0.754 ± 1.1.

GNNRCDVIIMVFFK registered an amyloid nucleation score of 1.7 ± 0.12.

For the substance VVTRDQLYQ, the amyloid nucleation score is -0.817 ± 1.7.

Regarding VPYRFPRMVKYGSMDFTSLE, the amyloid nucleation score turned out to be 4.03 ± 0.094.

On to DNMSVLYDTTLVFRWIWVEP, for which the amyloid nucleation score result is “inactive”.

On to YSGPGAQFIAMLNKLWCTAH, for which the amyloid nucleation score was 1.23 ± 0.24.

Take AELSITASTNMESNLVNSIR: the amyloid nucleation score is -1.69 ± 2.7.

As to GRGKPMTLASKFIAGRFVF, the amyloid nucleation score came to 0.521 ± 0.97.

For the substance QWQIDMIPRCLGDMNLIVLQ, the amyloid nucleation score result is “inactive”.

Regarding KWLPMKMKLWFDNSYGGQWF, the amyloid nucleation score is -0.265 ± 1.2.

LFSYMYLEVDMSESMIRYL returned an amyloid nucleation score of 1.02 ± 0.31.

Regarding MSEFADTIMIVNGCGWRVVR, the amyloid nucleation score is -0.039 ± 0.26.

On to FMSYLNYRQCPPVLDEEVVP, for which the amyloid nucleation score is 0.241 ± 1.

For HSFGKTFGDCYRRHSYLVNE, the amyloid nucleation score is -0.437 ± 0.41.

In turn, WFSWLVGEILCWCGGWVRSK yielded an amyloid nucleation score of 0.404 ± 0.51.

Turning to ECPRVSLASGDVE, the amyloid nucleation score amounted to 1.17 ± 0.66.

On to SMLRCLY, for which the amyloid nucleation score turned out to be 0.758 ± 0.85.

Turning to RSQRGRPWEGGLSTSLGVRR, the amyloid nucleation score is -0.736 ± 1.2.

As to NLVWSYFLLGTDSYITTYDW, the amyloid nucleation score amounted to 0.314 ± 0.79.

As to CFLYNSFYILDISELLQGST, the amyloid nucleation score came to 4.81 ± 0.049.

On to FVLQWRNIRVVDLRMRPYPK, for which the amyloid nucleation score was 0.508 ± 0.28.

With WSCTSCFNYGLF, the amyloid nucleation score was determined as 7.178 ± 0.052.

Take LDRSTSSLIMSSCLMYRESS: the amyloid nucleation score was 1.33 ± 0.29.

Turning to LSLRDLGSLALRGLKMNATR, the amyloid nucleation score was -0.397 ± 0.91.

Regarding TTEYRMLGYSVEHLQDCSDR, the amyloid nucleation score was -0.527 ± 0.54.

The substance HGYSNNVARYWA had an amyloid nucleation score of 0.372 ± 1.4.

The substance VYYLIVHLHSGMLHQIVELS had an amyloid nucleation score of 0.707 ± 0.51.

As to SSQRGGNPGIMFNWEIVLRG, the amyloid nucleation score is 2.59 ± 0.14.

As to VVMVLSKGPDIRSNMRCSSV, the amyloid nucleation score is -1.9 ± 1.4.

For FIWDAWLGRKVSESHTVFHS, the amyloid nucleation score came to 0.017 ± 0.21.

In turn, RDIILGVLDRCSHCKNRALI displayed an amyloid nucleation score of 0.223 ± 0.62.

For the substance DRMLLMVCIVWNRFVKGFPH, the amyloid nucleation score entry was “inactive”.

As for ESLSCKFLCVYCCL, the amyloid nucleation score result is “inactive”.

LVYRCASRRVSNSFMLCW: the amyloid nucleation score was -0.542 ± 0.62.

Take LLSMLRCYWVSRLFV: the amyloid nucleation score was -0.079 ± 0.65.

For LVEVNWI, the amyloid nucleation score was -0.412 ± 0.47.

Regarding RSSCKTTLEIIGVLRMRVYA, the amyloid nucleation score was found to be 0.769 ± 0.45.

For the substance ESVLWVFYV, the amyloid nucleation score came to 0.1 ± 0.41.

As to ACARTTDIFV, the amyloid nucleation score is -1 ± 1.1.

For RGSKRTVKLNSGVRVKSYDW, the amyloid nucleation score turned out to be 0.373 ± 1.4.

RVILFFRFIAILEDCATVSF: the amyloid nucleation score is -0.544 ± 0.25.

Substance DGCSRFRREGAEVYQRMGIG returned an amyloid nucleation score of 1.04 ± 0.85.

As for HLYLRITTVG, the amyloid nucleation score is 1.49 ± 0.76.

As to MPKRSKHFVNWVVNA, the amyloid nucleation score is -0.265 ± 0.29.

In turn, QVSCSGFYRRDLSSRL gave an amyloid nucleation score of 0.614 ± 0.56.

NNVAGCLEFHRYQGMCGRSM registered an amyloid nucleation score of 1.04 ± 0.36.

Turning to CDNDSMWGYCLTTRMGRFTA, the amyloid nucleation score was -0.379 ± 0.59.

GCVGGWSVEFITLGYWSQRG had an amyloid nucleation score of 1.17 ± 0.88.

With ILWLFSGAWLYYSVLYCL, the amyloid nucleation score is -0.076 ± 0.51.

FVYNTSFLYSVCNNWAKRSP came in with an amyloid nucleation score of 7.758 ± 0.053.

In turn, SAAGT yielded an amyloid nucleation score of 0.49 ± 0.66.

Turning to KVLTRPG, the amyloid nucleation score is -0.213 ± 0.64.

Substance DWGERRLSRFNGAYSVVTMV gave an amyloid nucleation score of 0.599 ± 0.6.

For YMASEG, the amyloid nucleation score result was “inactive”.

Consider ADCFCNRFNVICVKHYGSAR, for which the amyloid nucleation score came to 0.159 ± 0.42.

The substance LFIVPRRGARRYRVVITKSV returned an amyloid nucleation score of 0.003 ± 0.46.
